According to US20250332297A1, “DLL3-SPECIFIC BINDING CONSTRUCTS AND THEIR USE IN RADIOTHERAPY” (MOLECULAR PARTNERS AG, priority 2024, published 2025):

Columns and labels:
[1] = target: T1, mouse DLL3-ECD (Mus musculus, UniProt O88516); assay: SPR, immobilized DARPin, binding of mouse DLL3-ECD (Example 17); conditions: immobilized biotinylated DARPin, DLL3-ECD as analyte, 1:1 Langmuir, Table 20
T1 construct: the extracellular domain of DLL3 (DLL3-ECD) from human, cynomolgus monkey, mouse and pig
T1 sequence (O88516 33-490 limits assumed): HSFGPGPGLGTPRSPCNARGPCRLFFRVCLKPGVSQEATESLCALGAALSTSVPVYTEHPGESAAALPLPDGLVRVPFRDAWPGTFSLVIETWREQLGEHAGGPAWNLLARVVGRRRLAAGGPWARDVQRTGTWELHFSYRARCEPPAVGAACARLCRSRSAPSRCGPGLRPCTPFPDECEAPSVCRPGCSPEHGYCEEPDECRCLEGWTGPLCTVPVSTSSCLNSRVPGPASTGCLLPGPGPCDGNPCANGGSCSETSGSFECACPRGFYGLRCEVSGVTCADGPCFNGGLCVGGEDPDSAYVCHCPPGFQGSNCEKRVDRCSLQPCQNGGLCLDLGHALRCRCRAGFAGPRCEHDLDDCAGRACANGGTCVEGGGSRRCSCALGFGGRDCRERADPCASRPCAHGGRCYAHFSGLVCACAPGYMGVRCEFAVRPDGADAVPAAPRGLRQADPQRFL
Procedure: (§1) Kinetic binding parameters and binding affinities of two domain (2D) ankyrin repeat protein MAM279 and single domain (1 D) ankyrin repeat protein MAM093 to DLL3 from different species were determined. The DLL3-specific ankyrin repeat domain of MAM093 is identical to the DLL3-specific ankyrin repeat domain comprised in MAM279.
(§2) SPR multi-trace analyses were performed similarly as described in Examples 1 and 11. Here, the binding kinetics of immobilized DARPin proteins to the extracellular domain of DLL3 (DLL3-ECD) from human, cynomolgus monkey, mouse and pig were determined. Various concentrations of recombinant DLL3-ECD starting from 500 nM were applied to immobilized biotinylated 2D DARPin (MAM279; SEQ ID NO: 11) or 1 D DARPin (MAM093; SEQ ID NO: 1) (both with a Glycine-Serine (GS) at the N-terminal end) for on-rate and off-rate measurements.
(§3) Streptavidin SAHC200M (Xantec) SPR chip was conditioned according to the manufacturer's protocol. Biotinylated DARPins were immobilized to a coating density of 27 resonance units (RU) for 1D DARPin and 25 RU for 2D DARPin. All analytes (3-fold dilution ranging from 500-6.17 nM) were injected in succession for 240 s and dissociation was recorded for 10800 s using a constant flow of 100 μl/min.

[2] = target: Cyno DLL3-ECD; assay: SPR, immobilized DARPin, binding of cyno DLL3-ECD (Example 17); parameters: species or system cynomolgus monkey; conditions: immobilized biotinylated DARPin, DLL3-ECD as analyte, 1:1 Langmuir, Table 19
Procedure: as §1, §2, §3

[3] = target: T2, human serum albumin (Homo sapiens, UniProt P02768); assay: SPR binding to human serum albumin (Example 18); parameters: purchased CSL; conditions: immobilized HSA, 1:1 Langmuir, Table 21
Procedure: SPR multi-trace analyses were performed similarly as described in previous Examples. The following ankyrin repeat proteins analyzed: (i) MAM279 (SEQ ID NO: 11) (with a Glycine-Serine (GS) at its N-terminal end); and (ii) MAM279 (SEQ ID NO: 11), with a Glycine-Serine (GS) at its N-terminal end and a tag (SEQ ID NO: 10) at its C-terminal end (resulting in GS-MAM279-tag (SEQ ID NO: 15)), conjugated to the chelator DOTAM as described in Example 3.
All analytes (3-fold dilution ranging from 600-7.41 nM) were injected in succession for 240 s and dissociation was recorded for 600 s using a constant flow of 25 μl/min (HSA) or 100 μl/min (MSA) (25 μl/min). […] The obtained SPR traces were used to determine the DARPin-serum albumin interaction parameters, and results are summarized in Table 21.

[4] = tested on: hDLL3-MC38 tumors; assay: Efficacy (tumor growth) in hDLL3-MC38 tumor model; assay type: in vivo, mouse; conditions: tumor volume in mm^3, hDLL3-MC38
Procedure: To determine the efficacy of radio-labelled (Pb-212) DARPin (MAM160) conjugate in inhibiting the growth of tumors that express DLL3, different dose regimens (single or repeated dose) of the conjugate were tested in a mouse tumor model (hDLL3-MC38).
The first injections were done 7 days after the xenografts. Animals were under observation daily and 3× per week tumors were measured by caliper. Animals were sacrificed when tumors reached 1000 mm^3 or if termination criteria were met. The data were expressed as average+/−SEM of tumor volume in mm^3.

[5] = target: T2, human serum albumin; conditions: class in words (Low, Mid, High); Table 5
Procedure: For SPR analysis, the free Cysteine of the 2D DARPins was capped with Iodoacetamide (IAM). A surface plasmon resonance (SPR) assay was then used to determine the binding kinetics of the three 2D DARPins to human or mouse serum albumin. Various concentrations of 2D DARPins starting from 2000 nM were applied to immobilized human serum albumin (HSA) or mouse serum albumin (MSA) for on-rate and off-rate measurements.
The data were generated using a BioRad ProteOn instrument with SPR running buffer (PBS, pH 7.4 containing 0.05% Tween 20®). A HC200M chip (Xantec) was conditioned according to the manufacturer's protocol. The chip was coated with purified human serum albumin (HSA, CSL) or mouse serum albumin (MSA, Sigma-Aldrich) in NaOAc pH5.0 to reach a signal intensity of ˜380 (HSA) or ˜630 (MSA) RU for the analysis of Intermediate HSA affinity 2D DARPin and High HSA affinity 2D DARPin; ˜1125 (HSA) or ˜1965 (MSA) for the analysis of Low HSA affinity 2D DARPin. All analytes (3-fold dilution ranging from 2000-24.69 nM) were injected in succession for 240 s (50 μl/min) and dissociation was recorded for 600 s (50 μl/min). The data was double referenced (control spot and buffer injection) and fitted to a 1:1 Langmuir model. The obtained SPR traces were used to determine binding parameters.

B1: MAM279: Two domain (2D) ankyrin repeat protein: serum albumin-specific domain (SEQ ID NO: 7), PT linker, DLL3-specific domain of MAM093 (protein)
chain: DLGKKLLEAARAGQDDEVRELLKAGADVNAKDYFSHTPLHLAARNGHLKIVEVLLKAGADVNAKDFAGKTPLHLAADAGHLEIVEVLLKAGADVNAQDIFGKTPADIAADAGHEDIAEVLQKAAGSPTPTPTTPTPTPTTPTPTPTGSDLGKKLLAAAAQGQDDEVRELLKAGANVNAKDLFGYTPLHLAAWRGHLEIVEVLLKAGADVNAKDAAGETPLHLAAWFGHLEIVEVLLKAGADVNAQDLQGKTPADLAAKEGHEDIAEVLQKAA
modifications: Ankyrin repeat protein (MAM279)
B1 was tested, and the Kd [1] was 83.9 nM, the “Koff mouse DLL3-ECD” value [1] was 0.00282 s⁻¹ and the “Kon mouse DLL3-ECD” value [1] was 33700 M⁻¹ s⁻¹. The Kd [2] was 8.88 nM, the “Koff Cyno DLL3-ECD” value [2] was 0.000939 s⁻¹ and the “Kon Cyno DLL3-ECD” value [2] was 106000 M⁻¹ s⁻¹. The Kd [3] was 75.5 nM, the “Koff HSA” value [3] was 0.0216 s⁻¹ and the “Kon HSA” value [3] was 286000 M⁻¹ s⁻¹.

B2: Rova: Rova antibody, DLL3-binding benchmark antibody used as positive control and comparison (antibody, chains of the INN, looked up, V domains shown)
VH: QVQLVQSGAEVKKPGASVKVSCKASGYTFTNYGMNWVRQAPGQGLEWMGWINTYTGEPTYADDFKGRVTMTTDTSTSTAYMELRSLRSDDTAVYYCARIGDSSPSDYWGQGTLVTVSS
VL: EIVMTQSPATLSVSPGERATLSCKASQSVSNDVVWYQQKPGQAPRLLIYYASNRYTGIPARFSGSGSGTEFTLTISSLQSEDFAVYYCQQDYTSPWTFGQGTKLEIK
For B2, the “Mean Diff.” value ([4]; Dunnett's multiple comparisons test, Buffer vs. 3 × 10μCi (1 week apart)) was 251.6 and the “Mean Diff.” value ([4]; Tukey's multiple comparisons test, Buffer vs. 3 × 10μCi) was 251.6.

B3: MAM160: Two domain (2D) ankyrin repeat protein: serum albumin-specific domain (SEQ ID NO: 7), PT linker, DLL3-specific domain MAM120 (protein)
chain: DLGKKLLEAARAGQDDEVRELLKAGADVNAKDYFSHTPLHLAARNGHLKIVEVLLKAGADVNAKDFAGKTPLHLAADAGHLEIVEVLLKAGADVNAQDIFGKTPADIAADAGHEDIAEVLQKAAGSPTPTPTTPTPTPTTPTPTPTGSDLGTKLLSAAADGQDDEVRELLQAGADVNAKDLFGYTPLHLAAWRGHLEIVEVLLEAGADVNAKDAAGLTPLHLAAWFGHLEIVEVLLEAGADVNAQDVQGVTPADLAAKEGHEDIAEVLQQAA
modifications: Ankyrin repeat protein (MAM160)
B3 was tested, and the HSA affinity [5] was “High”.
